The data set is described as follows: protein stability index of a GFP-peptide fusion (GPS, HEK-293T) (PSI 1-6); higher = more stable. To be noted: parent: NP_006221.1; c terminus: native.
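Further: lentivirally expressed fusion library, cells FACS-sorted into six equal-sized GFP/DsRed ratio bins, PSI computed from sequencing read fractions per bin weighted by bin number.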

B1: POLD2 addRQ (peptide)
chain: CQPISFSGFGAEDDDLGGLGLGPRQ
Take B1: the protein stability index amounted to 4.81.

For the origin of these results see the supplement of paper PMC10567573.
